{"source": "paper PMC5892457", "about": "“Characterisation of novel biomass degradation enzymes from the genome of Cellulomonas fimi” (Enzyme and Microbial Technology, 2018)", "proteins": {"B1": {"name": "AfsB (Cellulomonas fimi ATCC 484) (protein)", "chain": "MFPVRLTLDPAFRVGPVRRRTFGSFVEHLGRCVYTGIHDPGHPTADADGFRKDVLELTRELGVSTVRYPGGNFVSGYRWEDGVGPVEQRPTRLDLAWHSLEPNTVGVDEFMRWAALAEVEPMMAVNLGTRGVQEALDLLDYCNGTAPTYWADQRRANGATDPYAIKMWCLGNEMDGPWQIGSKTAHEYGRLAAETGRAMKMVDPTLELVACGSSGVVMPTFGEWERIVLSEAYEQVDYVSAHAYYWEEDGDLGSFLASATDMDHFVESVTATADAVRAHKKVSKRIHISFDEWNVWYQKRAESRPPTGDDWPVAPVLLEDRYNVADAVVVGNLLISLLRHTDRVHAASLAQLVNVIAPIMTEPGGRSWKQTIFHPFAQASRYAAGDVLQVAIDAPTYETARYGDAALVDAVATRDPETGATTLFAVNRSLTEPALLEVDTRALPGLRVLDASTLSNPDHTWAATADDDTSVAPRANTTAEIRDGRLTVQVPPVSWNVVRLGA", "notes": "full ORF as BioBrick, E. coli JM109, untagged; partially purified (DEAE-Sepharose, phenyl-agarose)"}, "B2": {"name": "BxyF (Cellulomonas fimi ATCC 484) (protein)", "chain": "MTRRLVPELEVRRHLVEDYADFTQIPEAVVARWKAPFGPPEDWDLTVVDHTVPGPHGPVPVRVYTPVGTPPDGGRACLVWMHGGAFSWGDLDMAEAHEVARGVAGRADVVVVSVDYRLCPVMPELGGTVGDRVDERGEPVRFPVPQDDCAAVLDAVRADPARFGVDAARVAIGGASAGAFLAAAVTLRAVEDGRAPWQTLLVYPMLHPRVPALGTELAEAVEAAPRALQLPAWMVEATNRTVLGREPEPSDDEAFPGLAARLEGFPPTYVENGELDAFRASGERFSTRLRAAGVDVVEVTRSGVPHGHLDWVGFGPARDTLDALAQRLRAPSAADRQALDELRVDGAPASDAPLHHVWNRCVGAGRANEALRADWQAHLREAVDVLGVRSVRFHGLFHDDMFVYRSTYGGGFAPPEVLPEPLITFSYVDMVFDALLDAGARPFVELGFMPRELATQTETLFWWKAHCSPPTDMAEWVRLVSETVRHWIERYGLDEVRQWRFEVWNEPNLVPHFWTGTRTEYFALYEATARALKAIDLQLRVGGPSTSVFVPDARYAGETYDHAAEFATGRAPDPDALDWQPVWVRELVDYCAERDLPLDFLSTHLYPTDYAADGTGSGVTAIHRHVDATEQDLRLLQELIAASPYPDAELHITEWSSSPSSRDRTHDTLFAATYITRAFLKGAALADSISYWTFTDIFEEGGAGLGPFHGGFGFVNEQGIHKPTFHAVAMLNRLGDRVVHQDEHGIITRSSGDGHVSAVFLNYPAEMGTRGVEQHDTYAAARAYREIGTARRVRRTVAGLEPGTVFQVEVLDWEHGNAAEAWHQMGEPLNLTRAQTTELKTVADDLRRWTITVPDSGVLEIDLDLPAWAVASVAPVTPTPSPTTNDAPSPTSSRQG", "notes": "as for B1"}, "B3": {"name": "XynF (Cellulomonas fimi ATCC 484) (protein)", "chain": "AGSTLQAAAAESGRYFGTAIAASRLSDGTYTGIANREFNMITAENEMKMDATEPNRGQFSYSNGDRIVNWARQNGKQVRGHALAWHSQQPGWMQNLSGTDLRNAMLNHVTQVATYYRGKIYAWDVVNEAYADGSSGARRDSNLQRTGNDWIEAAFRAARAADPNAKLCYNDYNTDNWSHAKTQGVYNMVKDFKARGVPIDCVGFQAHFNSGNPVPSNYHTTLQNFADLGVDVQITELDIEGSGSSQAQQYQGVVQACLAVSRCTGITVWGVRDTDSWRASGTPLLFDGSGNKKAAYTSVLNALNAGGTTTPTPNPTNPTPTPTPTNPGGGSPSCTATYSEGQKWGDRFNGTVTIRATTNISSWQSTVTVRSPQKIIATWNGSPTWDSSGNVMTMRPSGSGALAAGQSTSFGFTVQHNGNWTWPSVTCAAS", "notes": "ORF with TAT signal peptide and CBMII as BioBrick, E. coli JM109, untagged; partially purified (DEAE-, CM-Sepharose)"}}, "assay_in_all_cases": "purified protein", "assay_type_in_all_cases": "biochemical, Cellulomonas fimi", "key": {"purified protein [1]": {"substrate": "O=[N+]([O-])c1ccc(O[C@@H]2O[C@@H](CO)[C@H](O)[C@H]2O)cc1", "conditions": "pH 6.5, 45 °C, partially purified enzyme"}, "purified protein [2]": {"substrate": "O=[N+]([O-])c1ccccc1O[C@@H]1OC[C@@H](O)[C@H](O)[C@H]1O", "conditions": "pH 6.0, 45 °C, partially purified enzyme, points at 20 mM and above excluded (substrate precipitation)"}, "purified protein [3]": {"substrate": "O=[N+]([O-])c1ccccc1O[C@@H]1O[C@H](CO)[C@@H](O[C@@H]2O[C@H](CO)[C@@H](O)[C@H](O)[C@H]2O)[C@H](O)[C@H]1O", "conditions": "pH 6.0, 60 °C, partially purified enzyme, printed value differs between text and Table 3"}}, "data": [{"protein": "B1", "values": [{"measurement": "Km", "setting": "purified protein [1]", "result": 6.8, "unit": "mM"}]}, {"protein": "B2", "values": [{"measurement": "Km", "setting": "purified protein [2]", "result": 1.7, "unit": "mM"}]}, {"protein": "B3", "values": [{"measurement": "Km", "setting": "purified protein [3]", "result": 58, "unit": "mM"}]}]}
